Measured values reported in patent publication US20100098709A1 (AstraZeneca / MedImmune, published 2010).
Substitutions are numbered along the chain they refer to. One block for each binder: values may come before it.

Columns and labels:
[1] = biological target: T1, FLAG HIS tagged soluble IL-6Ra (human, UniProt P08887 20-358, limits assumed); assay: phage ELISA
T1 construct: the key was followed; also called HIS FLAG sIL-6R; FLAG-sIL-6R
T1 sequence: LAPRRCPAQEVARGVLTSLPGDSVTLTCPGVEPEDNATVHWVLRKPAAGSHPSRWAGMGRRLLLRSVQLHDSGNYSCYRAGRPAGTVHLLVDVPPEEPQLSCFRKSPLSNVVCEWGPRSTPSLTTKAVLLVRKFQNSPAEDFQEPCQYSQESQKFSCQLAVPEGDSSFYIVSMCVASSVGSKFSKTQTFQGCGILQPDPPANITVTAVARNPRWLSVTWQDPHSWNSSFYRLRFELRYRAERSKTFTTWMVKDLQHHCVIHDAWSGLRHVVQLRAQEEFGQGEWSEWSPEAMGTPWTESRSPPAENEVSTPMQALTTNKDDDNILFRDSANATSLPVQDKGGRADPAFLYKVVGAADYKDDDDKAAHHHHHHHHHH

[2] = biological target: T1, FLAG HIS tagged soluble IL-6Ra; assay: phage ELISA, antigen on anti-FLAG plate
[3] = biological target: T2, biotinylated anti-FLAG monoclonal antibody (Sigma F9291); assay: phage ELISA, anti-FLAG treated plate alone
T2 construct: Control coat of the phage ELISA plates (streptavidin plate treated with the anti-FLAG antibody, then MPBS only); also called anti FLAG antibody treated plates alone

[4] = biological target: T1, FLAG HIS tagged soluble IL-6Ra; assay: ELISA and HTRF soluble binding assay, IgG
[5] = biological target: T3, HIS FLAG irrelevant ligand; assay: HTRF soluble binding assay, 1 nM IgG, 20 nM HIS FLAG protein
T3 construct: Unnamed control of the HTRF soluble assay; also called irrelevant FLAG HIS ligand
Description: (§1) Purified IgG from positive clones identified from screening of crude periplasmic scFv and purified scFv, were tested in a HTRF® assay for binding to FLAG HIS tagged Hyper IL-6, FLAG HIS IL-6 and FLAG HIS sIL-6R.
(§2) Example data for binding of IgG of positive clones identified from screening of crude periplasmic scFv. Data shown in table 3 is expressed as % delta F at an IgG concentration of 1 nM (final assay concentration) and 20 nM of HIS FLAG protein (final assay concentration).

[6] = biological target: T1, FLAG HIS tagged soluble IL-6Ra; assay: as above
Description: as §1, §2

[7] = biological target: T4, HIS FLAG irrelevant receptor; assay: as above
T4 construct: Unnamed control of the HTRF soluble assay; also called irrelevant FLAG HIS receptor
Description: as §1, §2

[8] = biological target: T1, FLAG HIS tagged soluble IL-6Ra; assay: ELISA, IgG captured by anti-human Fc, 50 nM protein
Description: (§3) Immunoassay plates were washed 3 times using PBST, then blocked by addition of 300 μl/well MPBS for 1 h at room temperature. After a second washing step 2 μg/ml of the anti-complex antibody in PBS was added to the plate at 50 μl/well. The plates were incubated for 1 h at room temperature before being washed again as previously described. FLAG-tagged reagents (IL-6, sIL-6R, Hyper Complexes) were diluted to 50 nM in MPBS. Complexes were made using 50 nM of the FLAG-tagged component and a 2-fold molar excess of the untagged component. Four-fold serial dilutions were prepared of each of the reagents, which were then added to duplicate wells of the immunoassay plates at 50 μl/well. Control wells containing 50 nM irrelevant protein (in this case his FLAG tagged murine GMCSF-R), or MPBS only were also prepared. The immunoassay plates were then incubated for 1 h at room temperature. After a further washing step, biotinylated anti-FLAG monoclonal antibody (Sigma) diluted to 1 μg/ml in MPBS was added to all wells at 50 μl/well. The plates were incubated for 1 h at room temperature before the plates were again washed as before. Europium labelled streptavidin (Perkin Elmer 1244-360) was diluted to 100 ng/ml in Delfia assay buffer (Perkin Elmer 4002-0010), added to all wells at 50 μl/well and incubated for 1 h at room temperature. The immunoassay plates were then washed 7 times in Delfia wash buffer, consisting of 0.05 M Tris buffered saline (NaCl-0.138 M, KCl-0.0027 M) Tween 20 (0.05%), pH 8.0 (at 25° C.). A 50 μl volume of Delfia enhancement solution (Perkin Elmer 4001-0010) was then added to all wells. The plates were incubated for 10 mins before the Time-resolved fluorescence was measured at 620 nm using an EnVision plate reader.

[9] = biological target: T5, HIS FLAG tagged human IL-6 (human, UniProt P05231 30-212); assay: ELISA and HTRF soluble binding assay, IgG
T5 construct: also called HIS FLAG IL-6; FLAG-IL-6

[10] = biological target: T6, FLAG HIS tagged Hyper IL-6; assay: HTRF, inhibition of Hyper IL-6 binding to biotinylated gp130 Fc; IgG
T6 construct: also called HIS FLAG Hyper IL-6
Description: Purified IgG from positive clones identified from screening of crude periplasmic scFv and purified scFv were tested in a HTRF® assay for inhibition of binding of FLAG HIS tagged Hyper IL-6 binding to biotinylated recombinant human gp130 Fc. This assay was performed as for purified scFv (Example 3) with the following modifications. 6 nM biotinylated human recombinant gp130 Fc (10 μl/well) was used to give a final concentration of 1 nM of gp130Fc.
Purified scFv were diluted 1:3 by transferring 15 μl of purified scFv to 30 μl assay buffer and mixing by pipetting in 96 well plate (Greiner 650201). Dilutions were carried out sequentially in duplicate a further 9 times. 3 nM GP130 Fc (10 μl/well) to give a final concentration of 0.5 nM, 6 nM Hyper IL-6 (10 μl/well) to give a final concentration of 1 nM and combined HTRF reagents 2.598 nM anti-flag IgG labelled with cryptate and 30 nM anti-human Fc antibody labelled with XL665 (10 μl/well) were added to 30 μl of purified scFv titration in 96 well plate. 40 μl was then transferred to a black 384 well optiplate. All dilutions were performed in assay buffer.

[11] = biological target: T5, HIS FLAG tagged human IL-6; assay: HTRF soluble binding assay, 1 nM IgG, 20 nM HIS FLAG protein
Description: as §1, §2

[12] = biological target: T6, FLAG HIS tagged Hyper IL-6; assay: as above
Description: as §1, §2

[13] = biological target: T5, HIS FLAG tagged human IL-6; assay: ELISA, IgG captured by anti-human Fc, 50 nM protein
Description: as §3

[14] = biological target: T7, Complex 2: IL-6/HIS FLAG sIL-6R (human, UniProt P05231 30-212; P08887 20-358, limits assumed); assay: as above
T7 construct: Non-covalent complex made by pre-incubating the two proteins; Untagged IL-6 was bought; also called IL-6/sIL-6R complex consisting of untagged ligand and FLAG tagged receptor
Description: as §3

[15] = biological target: T6, FLAG HIS tagged Hyper IL-6; assay: as above
Description: as §3

[16] = biological target: T8, Complex 1: HIS FLAG IL-6/sIL-6R (human, UniProt P05231 30-212; P08887 20-358, limits assumed); assay: as above
T8 construct: Non-covalent complex made by pre-incubating the two proteins; The untagged sIL-6R was bought; also called IL-6/sIL-6R complex consisting of FLAG tagged ligand and untagged receptor
Description: as §3

[17] = biological target: T5, HIS FLAG tagged human IL-6; assay: phage ELISA
[18] = biological target: T5, HIS FLAG tagged human IL-6; assay: phage ELISA, antigen on anti-FLAG plate
[19] = biological target: T7, Complex 2: IL-6/HIS FLAG sIL-6R; assay: phage ELISA, antigen on anti-FLAG plate
[20] = biological target: T6, FLAG HIS tagged Hyper IL-6; assay: phage ELISA, antigen on anti-FLAG plate
[21] = biological target: T8, Complex 1: HIS FLAG IL-6/sIL-6R; assay: phage ELISA, antigen on anti-FLAG plate

binding result [9]: no binding
binding result [4]: no binding
IC50 [10]: 0.7 nM
% delta F [11]: 4%
% delta F [5]: 1%
% delta F [6]: 9%
% delta F [12]: 331%
% delta F [7]: 3%
Europium Counts [13]: 1730 counts
Europium Counts [8]: 1500 counts
Europium Counts [14]: 417000 counts
Europium Counts [15]: 383000 counts
B6: Antibody 5 IgG (antibody, V domains shown)
VH: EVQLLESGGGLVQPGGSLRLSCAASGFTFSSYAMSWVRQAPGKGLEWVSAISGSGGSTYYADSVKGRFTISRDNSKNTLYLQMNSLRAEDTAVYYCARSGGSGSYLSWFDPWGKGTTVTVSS
VL: QSVLTQPPSVSGAPGQRVTISCTGSSSNIGAGYDVHWYQQLPGTAPKLLIYGNSNRPSGVPDRFSGSKSGTSASLAITGLQAEDEADYYCQSYDSSLSGWVFGGGTKVTVLG
notes: also called Ab 5
Europium Counts [16]: 120000 counts

binding result [17]: no binding
binding result [1]: no binding
Absorbance (450 nM) [18]: 0.065
Absorbance (450 nM) [2]: 0.061
Absorbance (450 nM) [19]: 0.747
Absorbance (450 nM) [20]: 0.833
Absorbance (450 nM) [3]: 0.062
B7: Antibody 5 scFv (scFv, V domains shown)
VH: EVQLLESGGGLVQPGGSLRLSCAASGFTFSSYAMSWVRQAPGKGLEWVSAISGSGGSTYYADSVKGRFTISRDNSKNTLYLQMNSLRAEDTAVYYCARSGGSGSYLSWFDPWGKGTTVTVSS
VL: B6 VL
notes: also called Ab 5
Absorbance (450 nM) [21]: 0.331

binding result [4]: no binding
% delta F [5]: 10%
% delta F [6]: 6%
% delta F [7]: 11%
Europium Counts [8]: 1420 counts
B8: Antibody 3 IgG (antibody, V domains shown)
VH: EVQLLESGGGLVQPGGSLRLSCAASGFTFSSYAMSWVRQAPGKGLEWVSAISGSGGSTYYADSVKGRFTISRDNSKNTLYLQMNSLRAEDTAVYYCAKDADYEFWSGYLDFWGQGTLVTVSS
VL: B6 VL with T19N, S54N, W100Y, G104T
notes: also called Ab 3

binding result [1]: no binding
Absorbance (450 nM) [2]: 0.059
Absorbance (450 nM) [3]: 0.052
B9: Antibody 1 scFv (scFv, V domains shown)
VH: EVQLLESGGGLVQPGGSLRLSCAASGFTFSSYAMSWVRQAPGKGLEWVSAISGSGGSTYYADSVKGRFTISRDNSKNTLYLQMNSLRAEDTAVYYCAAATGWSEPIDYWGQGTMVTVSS
VL: SYVLTQPPSVSVAPGQTATITCGGNNIGLKSVHWYQQKPGQAPLLVVHDDSARPSGIPERFSGSNSGNTATLTISRVEAGDEADYSCQVWDNSGGLWVFGGGTKVTVLG
notes: also called Ab 1

binding result [4]: no binding
% delta F [5]: 8%
% delta F [6]: 4%
% delta F [7]: 11%
Europium Counts [8]: 1340 counts
B10: Antibody 1 IgG (antibody, V domains shown)
VH: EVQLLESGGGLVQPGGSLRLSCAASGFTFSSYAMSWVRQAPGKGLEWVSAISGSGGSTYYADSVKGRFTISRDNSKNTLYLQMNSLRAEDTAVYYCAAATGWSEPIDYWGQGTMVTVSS
VL: B9 VL
notes: also called Ab 1

The remaining lines, values behind:

B1: Antibody 4 scFv (scFv, V domains shown)
VH: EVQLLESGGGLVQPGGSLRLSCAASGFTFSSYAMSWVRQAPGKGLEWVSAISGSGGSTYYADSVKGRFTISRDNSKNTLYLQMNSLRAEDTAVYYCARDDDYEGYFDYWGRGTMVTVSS
VL: QAVLTQPSSVSGAPGQRVSISCTGSSSNIGAGYEVHWYQHLPGTAPKLLIYGNNNRPSGVPDRFSGSKSGTSASLAITGLQAEDEADYYCQSYDNNLPGSRVFGGGTKVTVLG
notes: also called Ab 4
binding result [1]: no binding
Absorbance (450 nM) [2]: 0.167
Absorbance (450 nM) [3]: 0.053

B2: Antibody 4 IgG (antibody, V domains shown)
VH: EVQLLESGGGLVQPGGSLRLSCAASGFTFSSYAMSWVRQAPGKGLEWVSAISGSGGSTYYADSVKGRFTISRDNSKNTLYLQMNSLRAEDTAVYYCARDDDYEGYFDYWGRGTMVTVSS
VL: B1 VL
notes: also called Ab 4
binding result [4]: no binding
% delta F [5]: 13%
% delta F [6]: 18%
% delta F [7]: 7%
Europium Counts [8]: 2000 counts

B3: Antibody 2 scFv (scFv, V domains shown)
VH: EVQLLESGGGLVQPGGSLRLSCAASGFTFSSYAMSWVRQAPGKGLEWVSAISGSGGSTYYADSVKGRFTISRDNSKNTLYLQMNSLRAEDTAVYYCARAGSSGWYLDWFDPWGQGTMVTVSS
VL: QAVLTQPSSVSGAPGQRVTISCAGSSSNIGAGYDVHWYQQVPGTAPKLLIYGDTNRPSGVPDRFSGSKFGTSASLTITGLQAEDEADYYCQSYDNSLSTSDWVFGGGTKVTVLG
notes: also called Ab 2
binding result [1]: no binding
Absorbance (450 nM) [2]: 0.083
Absorbance (450 nM) [3]: 0.052

B4: Antibody 2 IgG (antibody, V domains shown)
VH: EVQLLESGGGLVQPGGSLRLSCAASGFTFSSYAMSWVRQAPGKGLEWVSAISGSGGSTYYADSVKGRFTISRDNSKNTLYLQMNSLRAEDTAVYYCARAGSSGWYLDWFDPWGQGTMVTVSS
VL: B3 VL
notes: also called Ab 2
binding result [4]: no binding
% delta F [5]: 11%
% delta F [6]: 10%
% delta F [7]: 5%
Europium Counts [8]: 2450 counts

B5: Antibody 3 scFv (scFv, V domains shown)
VH: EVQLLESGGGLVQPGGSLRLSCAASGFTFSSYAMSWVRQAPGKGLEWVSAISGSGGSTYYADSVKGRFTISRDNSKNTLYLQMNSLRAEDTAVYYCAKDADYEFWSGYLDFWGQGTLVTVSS
VL: B6 VL with T19N, S54N, W100Y, G104T
notes: also called Ab 3
binding result [1]: no binding
Absorbance (450 nM) [2]: 0.056
Absorbance (450 nM) [3]: 0.049
